In paper PMC11117632 one finds binding signal (% signal decrease), Kd and binding signal (% impedance decrease) data, which are given here for three sequences.

The test system of series [1] is inactivated SARS-CoV-2 virus (whole virion) (SARS-CoV-2 strain CN2). In words: ELONA competition. The note with it: binding buffer 50 mM HEPES pH 7.4, 100 mM NaCl, 5 mM KCl, 2 mM MgCl2, 1 mM CaCl2; room temperature in SELEX, ELONA temperature not stated.
Series [2] has the same test system. In words: ELONA. The following applies: binding buffer 50 mM HEPES pH 7.4, 100 mM NaCl, 5 mM KCl, 2 mM MgCl2, 1 mM CaCl2; room temperature in SELEX, ELONA temperature not stated.
For series [3] the test system is unchanged. In words: EIS. The note with it: 5' SH, 3 x iSp18 spacer; binding buffer 50 mM HEPES pH 7.4, 100 mM NaCl, 5 mM KCl, 2 mM MgCl2, 1 mM CaCl2; room temperature in SELEX, ELONA temperature not stated.

“GCAATGGTACGGTACTTCCATGGCTGGTGCTTGAGGTGTGTGTGGGGGTAGGGCCAAAAGTGCACGCTACTTTGCTAA [aptamer 6.9]” registered a binding signal (% signal decrease) in series [1] of 56. This sequence also had a Kd in series [2] of 9.6 nM.

In the case of “GCAATGGTACGGTACTTCCATGGCTGGTGCTTGAGGTGTGTGTGGGGGTAGGGCCAAAAGTGCACGCTACTTTGCTAA [thiolated aptamer 6.9]”, the binding signal (% impedance decrease) in series [3] worked out at 40.

With “GCAATGGTACGGTACTTCCCGGGGCGGGCTGTCATGCCCATCCTACCGTGACCGCAAAAGTGCACGCTACTTTGCTAA [aptamer 6.8]”, the Kd in series [2] worked out at 21 nM.
